From patent publication US9993566B2, “SEZ6 modulators and methods of use” (AbbVie Stemcentrx LLC, priority 2013, dated 2018)

How the values were obtained:
[1] = tested on: LU100, a SCLC tumor; assay: Fab-saporin cytotoxicity in NTX tumor cells; format: cell-based, human; details: 50 and 500 pM antibody with Fab-saporin, seven days
Procedure: To corroborate the results of Example 14 and determine whether SEZ6 modulators can mediate toxin internalization and cell killing of human tumor cells (as opposed to engineered cells), mouse lineage-depleted NTX cells were plated and subsequently exposed to anti-SEZ6 antibodies and Fab-saporin.
NTX tumors were dissociated into a single cell suspension and plated on Primaria™ plates (BD Biosciences) in growth factor supplemented serum free media as is known in the art. After culturing the cells for one day at 37° C./5% CO2/5% O2, they were treated with a control (IgG1, IgG2a or IgG2b) or a murine SEZ6 modulator and Fab-saporin as described in Example 14. After seven days, the modulator-mediated saporin cytotoxicity was assessed by quantifying the remaining number of live cells using Cell Titer Glo.

[2] = target: T1, SEZ6 ECD (Homo sapiens, UniProt Q53EL9); assay: Fine epitope mapping (phage display peptide library or yeast-displayed SEZ6 ECD mutants); format: binding; details: epitope conformational (discontinuous) or linear
T1 construct: SEZ6 extracellular domain (amino acids 1-904); expressed in transfected cells; host or cells: yeast (surface display, Cochran et al. protocol)
Procedure: Epitopes were classified either as conformational (i.e. discontinuous) or linear. Yeast displaying the SEZ6 ECD construct was heat treated for 30 minutes at 80° C. in order to denature the antigen, washed twice in ice-cold PBSA and then subjected to the same staining protocol and flow cytometry analysis as described above. Antibodies that bound to both the denatured and native yeast were classified as binding to a linear epitope, whereas antibodies that bound native yeast but not denatured yeast were classified as conformationally specific.
Fine epitope mapping was further performed on selected antibodies to determine the specific amino acids to which they bound. Antibodies that bound to a linear epitope were mapped using the Ph.D.-12 phage display peptide library kit (New England Biolabs E8110S). The antibody selected for epitope mapping was coated onto a Nunc MaxiSorp tube (Nunc) at 50 μg/mL in 3 mL 0.1 M sodium bicarbonate solution, pH 8 and incubated overnight. The tube was blocked with 3% BSA solution in bicarbonate solution. Then, 10^11 input phage in PBS+0.1% Tween-20 was allowed to bind, followed by ten consecutive washes with 0.1% Tween-20 to wash away non-binding phage. Remaining phage were eluted with 1 mL 0.2 M glycine for 10 minutes at room temperature with gentle agitation, followed by neutralization with 150 μL 1 M Tris-HCl pH 9. Eluted phage were amplified and panned again with 10^11 input phage, using 0.5% Tween-20 during the wash steps to increase selection stringency. DNA from 24 plaques of the eluted phage from the second round was isolated using the Qiaprep M13 Spin kit (Qiagen) and sequenced. Binding of clonal phage was confirmed using an ELISA assay, where the mapped antibody or a control antibody was coated onto an ELISA plate, blocked, and exposed to each clone phage. Phage binding was detected using horseradish peroxidase conjugated anti-M13 antibody (GE Healthcare), and the 1-Step Turbo TMB ELISA solution (Pierce). Phage peptide sequences from specifically binding phage were aligned using Vector NTI (Life Technologies) against the antigen ECD peptide sequence to determine the epitope of binding.
Selected antibodies that bound to a discontinuous epitope were mapped using the technique described by Chao et al. (2007). Libraries of SEZ6 ECD mutants were generated with error prone PCR using nucleotide analogues 8-oxo-2′deoxyguanosine-5′-triphosphate and 2′-deoxy-p-nucleoside-5′triphosphate (both from TriLink Bio) for a target mutagenesis rate of one amino acid mutation per clone. These were transformed into a yeast display format. Using the technique described above for domain-level mapping, the library was stained for c-myc and antibody binding at 50 nM. […] These clones were re-grown, and subjected to another round of FACS sorting for loss of binding to the target antibody. Using the Zymoprep Yeast Plasmid Miniprep kit (Zymo Research), individual ECD clones were isolated and sequenced. Where necessary, mutations were reformatted as single-mutant ECD clones using the Quikchange site directed mutagenesis kit (Agilent).
Individual ECD clones were next screened to determine whether loss of binding was due to a mutation in the epitope, or a mutation that caused misfolding. Mutations that involved cysteine, proline, and stop codons were automatically discarded due to the high likelihood of a misfolding mutation. Remaining ECD clones were then screened for binding to a non-competing, conformationally specific antibody. ECD clones that lost binding to non-competing, conformationally specific antibodies were concluded to contain misfolding mutations, whereas ECD clones that retained equivalent binding as wild type SEZ6 ECD were concluded to be properly folded. Mutations in the ECD clones in the latter group were concluded to be in the epitope. […]

[3] = tested on: rat SEZ6; assay: Flow cytometry cross reactivity, RIN-m5F cells; format: binding; details: 5 μg/mL antibody
Chain of rat SEZ6 (as listed by the source): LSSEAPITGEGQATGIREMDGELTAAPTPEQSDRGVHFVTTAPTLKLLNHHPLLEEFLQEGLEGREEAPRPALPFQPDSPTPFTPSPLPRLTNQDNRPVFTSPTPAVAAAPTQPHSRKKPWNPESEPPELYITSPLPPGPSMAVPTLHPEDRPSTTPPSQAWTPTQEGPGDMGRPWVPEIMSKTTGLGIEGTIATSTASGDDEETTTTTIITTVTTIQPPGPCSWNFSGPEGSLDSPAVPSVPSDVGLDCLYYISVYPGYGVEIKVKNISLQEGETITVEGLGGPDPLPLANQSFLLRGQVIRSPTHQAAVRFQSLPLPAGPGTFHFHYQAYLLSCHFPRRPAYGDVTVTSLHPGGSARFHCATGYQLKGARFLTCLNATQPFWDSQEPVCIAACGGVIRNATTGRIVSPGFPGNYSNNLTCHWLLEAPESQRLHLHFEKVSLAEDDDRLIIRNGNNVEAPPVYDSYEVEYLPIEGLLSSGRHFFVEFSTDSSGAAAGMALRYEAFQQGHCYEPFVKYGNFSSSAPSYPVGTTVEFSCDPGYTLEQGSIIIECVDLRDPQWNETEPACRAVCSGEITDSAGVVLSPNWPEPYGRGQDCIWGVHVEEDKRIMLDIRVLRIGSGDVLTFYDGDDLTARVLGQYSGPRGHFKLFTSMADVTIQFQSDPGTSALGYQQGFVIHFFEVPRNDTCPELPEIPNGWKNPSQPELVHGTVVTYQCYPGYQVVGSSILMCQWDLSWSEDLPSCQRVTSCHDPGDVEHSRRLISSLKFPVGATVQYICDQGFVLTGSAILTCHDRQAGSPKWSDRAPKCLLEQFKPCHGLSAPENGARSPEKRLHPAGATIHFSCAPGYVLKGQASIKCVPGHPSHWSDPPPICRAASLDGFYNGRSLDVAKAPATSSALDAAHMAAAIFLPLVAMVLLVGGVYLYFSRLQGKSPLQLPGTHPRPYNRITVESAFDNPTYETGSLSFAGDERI
Procedure: (§1) In this regard flow cytometry was performed using a FACSCanto II as per the manufacturer's instructions in order to confirm that selected SC17 antibody modulators can immunospecifically associate with human SEZ6 and to determine whether the same modulators cross-react with cynomolgus, rat and/or murine SEZ6 in addition to SEZ6L and SEZ6L2. More particularly modulators were tested for cross reactivity to murine SEZ6 and rat SEZ6 by flow cytometry against Neuro2a (ATCC Cat # CCL131), and RIN-m5F (ATCC cat # CRL-11605) cell lines which express mouse SEZ6 and rat SEZ6, respectively. For examining cross reactivity to cynomolgus SEZ6, yeast displaying the extracellular domain of cynomolgus SEZ6 (Boder et al, 1997) were used for flow cytometry analysis.
(§2) Briefly 1×10^5 cells per well of Neuro2a, RIN-5mF, or yeast displaying cynomolgus SEZ6 cells were incubated for 30 minutes with 50 μL PBS (2% FCS) buffer with 5 μg/mL antibody. Cells were washed twice with the same buffer and then incubated with 50 μL per sample DyLight 649 labeled goat-anti-mouse IgG, Fc fragment specific secondary diluted 1:200 in PBS buffer. After incubating for 15 minutes cells were washed twice with the PBS buffer and re-suspended in the same with DAPI for flow cytometry analysis of Neuro2a and Rin-m5F or buffer without DAPI for flow cytometric analysis of yeast cells with cSEZ6.

[4] = tested on: cynomolgus SEZ6; assay: Flow cytometry cross reactivity, yeast displaying extracellular domain of cynomolgus SEZ6; format: binding; details: 5 μg/mL antibody
Procedure: as §1, §2

[5] = target: T2, human recombinant SEZ6-His (Homo sapiens, UniProt Q53EL9); assay: Affinity by bio-layer interferometry (ForteBio RED) or surface plasmon resonance (Biacore 2000); format: binding; details: surface plasmon resonance
T2 construct: The cDNA fragment encoding the ECD of SEZ6 was amplified from the hSEZ6 cDNA clone; IgK signal peptide (N, cleaved yes); made in house; host or cells: HEK-293T and/or CHO-S
Procedure: Various methods were used to analyze the binding and immunochemical characteristics of selected SEZ6 modulators generated as set forth above. Specifically, a number of the antibody modulators were characterized as to affinity, binning, and cross reactivity with regard to human, cynomolgus, rat and mouse SEZ6 antigen along with SEZ6L and SEZ6L2 proteins by art-recognized methods including flow cytometry. Affinities and kinetic constants kon and koff of the selected modulators were measured using bio-layer interferometry analysis on a ForteBio RED (ForteBio, Inc.) or surface plasmon resonance using a Biacore 2000 each according to the manufacturer's instructions.
To verify the cross reactivity data above for rat SEZ6 and to determine the affinity and kinetic constants kon and koff of the selected effectors, either bio-layer interferometry analysis on a ForteBio RED (ForteBio, Inc.) or surface plasmon resonance on a Biacore 2000 (GE Healthcare) were conducted. Affinities were determined to both human recombinant SEZ6-His and rat recombinant SEZ6-His generated in Example 5.
Binding characteristics of the following humanized constructs from Example 8, hSC17.16, hSC17.17, hSC17.24, hSC17.28, hSC17.34 and hSC17.46, were analyzed in order to determine whether the CDR grafting process had appreciably altered their binding characteristics. The humanized constructs (CDR grafted) were compared with “traditional” chimeric antibodies comprising the murine parent (or donor) heavy and light chain variable domains and a human constant region substantially equivalent to that used in the humanized constructs. With these constructs surface plasmon resonance was conducted using a Biacore 2000 (GE Healthcare) to identify any subtle changes in rate constants brought about by the humanization process.

[6] = target: T3, mouse SEZ6 (Mus musculus, UniProt Q7TSK2); assay: Flow cytometry cross reactivity, Neuro2a cells; format: binding; details: 5 μg/mL antibody
T3 construct: Neuro2a (ATCC Cat # CCL131), and RIN-m5F (ATCC cat # CRL-11605) cell lines which express mouse SEZ6 and rat SEZ6; host or cells: Neuro2a
T3 sequence (Q7TSK2 20-991): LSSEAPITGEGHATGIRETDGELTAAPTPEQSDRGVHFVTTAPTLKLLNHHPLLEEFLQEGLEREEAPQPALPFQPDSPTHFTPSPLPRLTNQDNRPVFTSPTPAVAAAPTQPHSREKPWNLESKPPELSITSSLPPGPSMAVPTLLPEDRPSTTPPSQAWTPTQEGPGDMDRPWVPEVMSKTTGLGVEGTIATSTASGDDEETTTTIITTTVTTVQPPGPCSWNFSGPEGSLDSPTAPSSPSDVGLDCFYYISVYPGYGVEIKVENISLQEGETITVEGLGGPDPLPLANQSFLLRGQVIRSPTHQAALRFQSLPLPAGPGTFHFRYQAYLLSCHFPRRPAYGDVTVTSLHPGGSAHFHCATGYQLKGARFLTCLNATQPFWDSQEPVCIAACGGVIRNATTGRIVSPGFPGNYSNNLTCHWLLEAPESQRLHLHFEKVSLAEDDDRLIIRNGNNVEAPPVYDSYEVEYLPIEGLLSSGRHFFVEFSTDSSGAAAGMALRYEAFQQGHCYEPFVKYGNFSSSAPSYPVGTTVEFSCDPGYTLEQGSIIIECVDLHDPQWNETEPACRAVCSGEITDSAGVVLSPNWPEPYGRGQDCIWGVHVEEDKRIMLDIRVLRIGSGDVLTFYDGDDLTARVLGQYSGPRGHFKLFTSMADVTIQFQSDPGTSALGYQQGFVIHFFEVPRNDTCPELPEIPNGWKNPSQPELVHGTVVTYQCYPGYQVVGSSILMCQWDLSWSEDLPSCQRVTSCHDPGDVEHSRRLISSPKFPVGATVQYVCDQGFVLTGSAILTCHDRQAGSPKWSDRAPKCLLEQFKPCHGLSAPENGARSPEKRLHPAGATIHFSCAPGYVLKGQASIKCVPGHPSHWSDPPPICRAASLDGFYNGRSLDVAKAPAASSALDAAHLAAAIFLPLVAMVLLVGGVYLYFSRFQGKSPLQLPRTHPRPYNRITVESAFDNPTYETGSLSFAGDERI
Procedure: as §1, §2

Row | Molecule | Discontinuous [2] | cross reactivity to rat SEZ6 [3] | cross reactivity to cynomolgus SEZ6 [4] | binding affinity compared with corresponding murine or chimeric antibody [5] | cross reactivity to murine SEZ6 [6] | further results
1 | SC17.34: murine anti-SEZ6 antibody (antibody, V domains shown, Murine SC17.34 VH; Murine SC17.34 VL, murine anti-SEZ6 antibody) VH: EVQLQQSGPELVKPGSSVKISCKASGYTFTDYNMDWVKQSHGKRLEWIGYIYPDNGGAGYNQKFKGKATLTVDKSSSTAYMELRSLTSEDSAVYYCSRSITTAWFAYWGQGTLVTVSA VL: DIKMTQSPSSMYASLGERVTITCKASQDINSYLSWFQQKPGKSPKTLIYRANRLVDGVPSRFSGSGSGQDYSLTISSLEYEDMGIYYCLQYDEFPPTFGGGTKLEIK | Yes | cross reactive | cross reactive | – | – | number of tumor cells, LU100 [1]: reduction of tumor cells
2 | hSC17.28: humanized (CDR grafted) anti-SEZ6 antibody derived from SC17.28 (antibody, V domains shown, Humanized hSC17.28 VH; Humanized hSC17.28 VL) VH: QVQLVQSGAEVKKPGASVKVSCKASGYTFTRSYIHWVRQAPGQGLEWMGYISSGSGGTTYNQKFKGRVTSTRDTSISTAYMELSRLRSDDTAVYYCARGGVRYFDVWGQGTTVTVSS VL: EIVLTQSPDFQSVTPKEKVTITCRASQSIGTSIHWYQQKPDQSPKLLIKYASESISGVPSRFSGSGSGTDFTLTINSLEAEDAATYYCQQSNSWPLTFGQGTKLEIK | – | – | – | equivalent or better than the corresponding murine antibodies | – | –
3 | SC17.42: murine anti-SEZ6 antibody (antibody, V domains shown, Murine SC17.42 VH; Murine SC17.42 VL, murine anti-SEZ6 antibody) VH: DVKLVESGGGLVRPGGSLKLSCAASGFTFSRYTMSWVRQTPEKRLEWAATINSGGSNTYYPDSVKGRFTISRDNAKNTLFLQMSSLKSEDTAMYYCTNGNHWGQGTTLTVSS VL: ENVLTQSPAIMSASPGEKVTMTCSASSSVNYMYWYQQKSSTSPKLWIYDTSKLTSGVPGRFSGSGSGNSYSLTISNMEAEDVATYYCFQGSGYPLTFGSGTKLEIK | – | cross reactive | – | – | cross reactive | –
4 | hSC17.46: humanized (CDR grafted) anti-SEZ6 antibody derived from SC17.46 (antibody, V domains shown, Humanized hSC17.46 VH; Humanized hSC17.46 VL) VH: QVQLVQSGAEVKKPGASVKVSCKASGYTFTSYWINWVRQAPGQGLEWIGNIFPDTTTTNYNEKFKGRVTLTRDTSISTAYMELSRLRSDDTAVYYCAREYYDGTYDAMDYWGQGTLVTVSS VL: AIQMTQSPSSLSASVGDRVTITCKASQSVNNDVAWYQQKPGKAPKLLIYYASNRYTGVPSRFSGSGSGTDFTLTISSLQPEDFATYFCQQDYSSPRTFGQGTKLEIK | – | – | – | equivalent or better than the corresponding murine antibodies | – | –
5 | hSC17.34: humanized (CDR grafted) anti-SEZ6 antibody derived from SC17.34 (antibody, V domains shown, Humanized hSC17.34 VL) VH: QVQLVQSGAEVKKPGASVKVSCKASGYTFTDYNMDWVRQAPGQRLEWIGYIYPDNGGAGYNQKFKGRVTITVDTSASTAYMELSSLRSEDTAVYYCSRSITTAWFAYWGQGTLVTVSS VL: DIQMTQSPSSLSASVGDRVTITCKASQDINSYLSWFQQKPGKAPKSLIYRANRLVDGVPSRFSGSGSGTDYTLTISSLQPEDFATYYCLQYDEFPPTFGQGTKLEIK | – | – | – | equivalent or better than the corresponding murine antibodies | – | –
6 | SC17.24: murine anti-SEZ6 antibody; duplicate sequence of SC17.2 (antibody, V domains shown, Murine SC17.2 VH; Murine SC17.2 VL) VH: QVQLQQSDAELVKPGASVKISCKVSGYTFTDHTIHWMKQRPEQGLEWIGYIYPRDGSTKYNEEFKGKATLTADKSSSTAYMQLNSLTSEDSAVYFCARSYSNYFDYWGQGTTLTVSS VL: DIVMSQSPSSLAVSVGEKVTMSCKSSQSLLYSSNQKSYLAWYQQKPGQSPKLLIYWASTRESGVPDRFTGSGSGTDFTLTISSVQAEDLAVYYCKQSYNLRTFGGGTKLEIK | No | – | cross reactive | – | cross reactive | –
